Experimental data taken from US20140087995A1 (published 2014).
Numbered stars: 1 amine (or outer) side, 2 acyl side, 3 side chain; on linkers, the order of the positions; unused ones are H or OH. Bridge positions count the residues as written; N and C are the ends. Side chains are listed from the residue outwards. Ends that are not written are not given here. * marks the point of attachment. C20 diacid = O=C(O)CCCCCCCCCCCCCCCCCCC(=O)*; C18 diacid = O=C(O)CCCCCCCCCCCCCCCCC(=O)*; γGlu = O=C(O)[C@H](CCC(=O)[*:2])N[*:1]

T1: human calcitonin receptor (human, UniProt P30988 25-474)
T1 construct: whole, on cells; Assay used cell membranes, not intact cells; also called hCTR; hCT
T1 sequence (looked up): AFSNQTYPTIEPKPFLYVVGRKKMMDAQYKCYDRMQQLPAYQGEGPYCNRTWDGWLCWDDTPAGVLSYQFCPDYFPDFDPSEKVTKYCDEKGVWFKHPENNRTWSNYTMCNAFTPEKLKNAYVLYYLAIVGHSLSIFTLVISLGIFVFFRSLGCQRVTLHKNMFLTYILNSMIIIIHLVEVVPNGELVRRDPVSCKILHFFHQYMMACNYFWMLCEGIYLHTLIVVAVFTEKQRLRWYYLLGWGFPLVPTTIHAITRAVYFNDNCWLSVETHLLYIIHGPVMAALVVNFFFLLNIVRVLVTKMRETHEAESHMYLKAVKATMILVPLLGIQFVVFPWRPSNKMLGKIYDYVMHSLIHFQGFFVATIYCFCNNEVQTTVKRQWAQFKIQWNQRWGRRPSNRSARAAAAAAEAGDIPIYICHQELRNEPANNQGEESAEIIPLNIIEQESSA

T2: human amylin receptor (amylin 3(a) receptor: human calcitonin receptor with RAMP-3) (human, UniProt P30988 25-474; O60896 24-148)
T2 construct: whole, on cells; Assay used cell membranes of the Amylin 3(a)/CRE-luc BHK cells, not intact cells; also called hAmylin-R; hAmylinR
T2 sequence (looked up) 1: T1 sequence (looked up)
T2 sequence (looked up) 2: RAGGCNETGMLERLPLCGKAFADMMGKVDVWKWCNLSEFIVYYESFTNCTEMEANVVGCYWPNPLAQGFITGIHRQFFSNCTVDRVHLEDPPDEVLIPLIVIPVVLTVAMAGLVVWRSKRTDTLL

B1: N^ε1-[(4S)-4-carboxy-4-(17-carboxyheptadecanoylamino)butanoyl]-[Arg17,Pro21,Pro27,His34]-h-amylin (peptide)
peptide: K([γGlu-C18 diacid])CNTATCATQRLANFLRHSSPNFGAIPSSTNVGHNTY-NH2
modifications: disulfide 2-7; N-terminus assumed
SMILES: CC[C@H](C)[C@H](NC(=O)[C@H](C)NC(=O)CNC(=O)[C@H](Cc1ccccc1)NC(=O)[C@H](CC(N)=O)NC(=O)[C@@H]1CCCN1C(=O)[C@H](CO)NC(=O)[C@H](CO)NC(=O)[C@H](Cc1c[nH]cn1)NC(=O)[C@H](CCCNC(=N)N)NC(=O)[C@H](CC(C)C)NC(=O)[C@H](Cc1ccccc1)NC(=O)[C@H](CC(N)=O)NC(=O)[C@H](C)NC(=O)[C@H](CC(C)C)NC(=O)[C@H](CCCNC(=N)N)NC(=O)[C@H](CCC(N)=O)NC(=O)[C@@H](NC(=O)[C@H](C)NC(=O)[C@@H]1CSSC[C@H](NC(=O)[C@@H](N)CCCCNC(=O)CC[C@H](NC(=O)CCCCCCCCCCCCCCCCC(=O)O)C(=O)O)C(=O)N[C@@H](CC(N)=O)C(=O)N[C@@H]([C@@H](C)O)C(=O)N[C@@H](C)C(=O)N[C@@H]([C@@H](C)O)C(=O)N1)[C@@H](C)O)C(=O)N1CCC[C@H]1C(=O)N[C@@H](CO)C(=O)N[C@@H](CO)C(=O)N[C@H](C(=O)N[C@@H](CC(N)=O)C(=O)N[C@H](C(=O)NCC(=O)N[C@@H](Cc1c[nH]cn1)C(=O)N[C@@H](CC(N)=O)C(=O)N[C@H](C(=O)N[C@@H](Cc1ccc(O)cc1)C(N)=O)[C@@H](C)O)C(C)C)[C@@H](C)O
B2: N^ε1-[(4S)-4-carboxy-4-(19-carboxynonadecanoylamino)butanoyl]-[Ala14,Arg17,Pro21,Pro27,His34]-h-amylin (peptide)
peptide: K([γGlu-C20 diacid])CNTATCATQRLAAFLRHSSPNFGAIPSSTNVGHNTY-NH2
modifications: disulfide 2-7; N-terminus assumed
SMILES: CC[C@H](C)[C@H](NC(=O)[C@H](C)NC(=O)CNC(=O)[C@H](Cc1ccccc1)NC(=O)[C@H](CC(N)=O)NC(=O)[C@@H]1CCCN1C(=O)[C@H](CO)NC(=O)[C@H](CO)NC(=O)[C@H](Cc1c[nH]cn1)NC(=O)[C@H](CCCNC(=N)N)NC(=O)[C@H](CC(C)C)NC(=O)[C@H](Cc1ccccc1)NC(=O)[C@H](C)NC(=O)[C@H](C)NC(=O)[C@H](CC(C)C)NC(=O)[C@H](CCCNC(=N)N)NC(=O)[C@H](CCC(N)=O)NC(=O)[C@@H](NC(=O)[C@H](C)NC(=O)[C@@H]1CSSC[C@H](NC(=O)[C@@H](N)CCCCNC(=O)CC[C@H](NC(=O)CCCCCCCCCCCCCCCCCCC(=O)O)C(=O)O)C(=O)N[C@@H](CC(N)=O)C(=O)N[C@@H]([C@@H](C)O)C(=O)N[C@@H](C)C(=O)N[C@@H]([C@@H](C)O)C(=O)N1)[C@@H](C)O)C(=O)N1CCC[C@H]1C(=O)N[C@@H](CO)C(=O)N[C@@H](CO)C(=O)N[C@H](C(=O)N[C@@H](CC(N)=O)C(=O)N[C@H](C(=O)NCC(=O)N[C@@H](Cc1c[nH]cn1)C(=O)N[C@@H](CC(N)=O)C(=O)N[C@H](C(=O)N[C@@H](Cc1ccc(O)cc1)C(N)=O)[C@@H](C)O)C(C)C)[C@@H](C)O
notes: also called compound 93
B3: N^ε1-[(4S)-4-carboxy-4-(19-carboxynonadecanoylamino)butanoyl]-[Ala14,Arg17,Pro21,Pro27,Pro34]-h-amylin (peptide)
peptide: K([γGlu-C20 diacid])CNTATCATQRLAAFLRHSSPNFGAIPSSTNVGPNTY-NH2
modifications: disulfide 2-7; N-terminus assumed
SMILES: CC[C@H](C)[C@H](NC(=O)[C@H](C)NC(=O)CNC(=O)[C@H](Cc1ccccc1)NC(=O)[C@H](CC(N)=O)NC(=O)[C@@H]1CCCN1C(=O)[C@H](CO)NC(=O)[C@H](CO)NC(=O)[C@H](Cc1c[nH]cn1)NC(=O)[C@H](CCCNC(=N)N)NC(=O)[C@H](CC(C)C)NC(=O)[C@H](Cc1ccccc1)NC(=O)[C@H](C)NC(=O)[C@H](C)NC(=O)[C@H](CC(C)C)NC(=O)[C@H](CCCNC(=N)N)NC(=O)[C@H](CCC(N)=O)NC(=O)[C@@H](NC(=O)[C@H](C)NC(=O)[C@@H]1CSSC[C@H](NC(=O)[C@@H](N)CCCCNC(=O)CC[C@H](NC(=O)CCCCCCCCCCCCCCCCCCC(=O)O)C(=O)O)C(=O)N[C@@H](CC(N)=O)C(=O)N[C@@H]([C@@H](C)O)C(=O)N[C@@H](C)C(=O)N[C@@H]([C@@H](C)O)C(=O)N1)[C@@H](C)O)C(=O)N1CCC[C@H]1C(=O)N[C@@H](CO)C(=O)N[C@@H](CO)C(=O)N[C@H](C(=O)N[C@@H](CC(N)=O)C(=O)N[C@H](C(=O)NCC(=O)N1CCC[C@H]1C(=O)N[C@@H](CC(N)=O)C(=O)N[C@H](C(=O)N[C@@H](Cc1ccc(O)cc1)C(N)=O)[C@@H](C)O)C(C)C)[C@@H](C)O
notes: also called compound 94
B4: N^ε1-[(4S)-4-carboxy-4-(19-carboxynonadecanoylamino)butanoyl]-[Arg14,Arg17,Pro21,Pro27]-h-amylin (peptide)
peptide: K([γGlu-C20 diacid])CNTATCATQRLARFLRHSSPNFGAIPSSTNVGSNTY-NH2
modifications: disulfide 2-7; N-terminus assumed
SMILES: CC[C@H](C)[C@H](NC(=O)[C@H](C)NC(=O)CNC(=O)[C@H](Cc1ccccc1)NC(=O)[C@H](CC(N)=O)NC(=O)[C@@H]1CCCN1C(=O)[C@H](CO)NC(=O)[C@H](CO)NC(=O)[C@H](Cc1c[nH]cn1)NC(=O)[C@H](CCCNC(=N)N)NC(=O)[C@H](CC(C)C)NC(=O)[C@H](Cc1ccccc1)NC(=O)[C@H](CCCNC(=N)N)NC(=O)[C@H](C)NC(=O)[C@H](CC(C)C)NC(=O)[C@H](CCCNC(=N)N)NC(=O)[C@H](CCC(N)=O)NC(=O)[C@@H](NC(=O)[C@H](C)NC(=O)[C@@H]1CSSC[C@H](NC(=O)[C@@H](N)CCCCNC(=O)CC[C@H](NC(=O)CCCCCCCCCCCCCCCCCCC(=O)O)C(=O)O)C(=O)N[C@@H](CC(N)=O)C(=O)N[C@@H]([C@@H](C)O)C(=O)N[C@@H](C)C(=O)N[C@@H]([C@@H](C)O)C(=O)N1)[C@@H](C)O)C(=O)N1CCC[C@H]1C(=O)N[C@@H](CO)C(=O)N[C@@H](CO)C(=O)N[C@H](C(=O)N[C@@H](CC(N)=O)C(=O)N[C@H](C(=O)NCC(=O)N[C@@H](CO)C(=O)N[C@@H](CC(N)=O)C(=O)N[C@H](C(=O)N[C@@H](Cc1ccc(O)cc1)C(N)=O)[C@@H](C)O)C(C)C)[C@@H](C)O
notes: also called compound 83
B5: N^ε1-[(4S)-4-carboxy-4-(19-carboxynonadecanoylamino)butanoyl]-[Arg17,Pro21,Pro27,Arg34]-h-amylin (peptide)
peptide: K([γGlu-C20 diacid])CNTATCATQRLANFLRHSSPNFGAIPSSTNVGRNTY-NH2
modifications: disulfide 2-7; N-terminus assumed
SMILES: CC[C@H](C)[C@H](NC(=O)[C@H](C)NC(=O)CNC(=O)[C@H](Cc1ccccc1)NC(=O)[C@H](CC(N)=O)NC(=O)[C@@H]1CCCN1C(=O)[C@H](CO)NC(=O)[C@H](CO)NC(=O)[C@H](Cc1c[nH]cn1)NC(=O)[C@H](CCCNC(=N)N)NC(=O)[C@H](CC(C)C)NC(=O)[C@H](Cc1ccccc1)NC(=O)[C@H](CC(N)=O)NC(=O)[C@H](C)NC(=O)[C@H](CC(C)C)NC(=O)[C@H](CCCNC(=N)N)NC(=O)[C@H](CCC(N)=O)NC(=O)[C@@H](NC(=O)[C@H](C)NC(=O)[C@@H]1CSSC[C@H](NC(=O)[C@@H](N)CCCCNC(=O)CC[C@H](NC(=O)CCCCCCCCCCCCCCCCCCC(=O)O)C(=O)O)C(=O)N[C@@H](CC(N)=O)C(=O)N[C@@H]([C@@H](C)O)C(=O)N[C@@H](C)C(=O)N[C@@H]([C@@H](C)O)C(=O)N1)[C@@H](C)O)C(=O)N1CCC[C@H]1C(=O)N[C@@H](CO)C(=O)N[C@@H](CO)C(=O)N[C@H](C(=O)N[C@@H](CC(N)=O)C(=O)N[C@H](C(=O)NCC(=O)N[C@@H](CCCNC(=N)N)C(=O)N[C@@H](CC(N)=O)C(=O)N[C@H](C(=O)N[C@@H](Cc1ccc(O)cc1)C(N)=O)[C@@H](C)O)C(C)C)[C@@H](C)O
notes: also called compound 79

What follows are binders tested against T1, human calcitonin receptor (assay: ratio IC50 hCTR / IC50 hAmylin-R (reference: human amylin receptor), SPA competition assays).
Outline: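 IC₅₀ values were derived by one-site competition analysis of SPA counts. Cell membranes (35 ng/μL) with SPA beads were incubated with test compounds for 120 min at 25° C in Hepes buffer, pH 7.4, containing CaCl2, MgCl₂, OA and Tween20.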

Binder	Ratio hCT/hAmylin binding
B1	59.4
B2	101
B3	46.3
B4	146
B5	46.1

The binders below were run against T1, human calcitonin receptor (assay: SPA competition with 125I-calcitonin on membranes of BHK cells with human calcitonin receptor (Assay VII)).
Outline: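 BHK hCTR membranes 35 ng/μL + SPA beads 0.05 mg/well; buffer 50 mM Hepes pH 7.4, 1 mM CaCl2, 5 mM MgCl₂, 0.1% OA, 0.02% Tween20. 120 min, 25° C., shaking. Scintillation count; IC50 by one-site binding competition.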

Binder	IC50
B1	22.7 nM
B2	17.8 nM
B3	6.86 nM
B4	137 nM
B5	36.4 nM

The binders below were run against T2, human amylin receptor (amylin 3(a) …) (assay: SPA competition with 125I-rat amylin on membranes of BHK cells with human calcitonin receptor and RAMP-3 (Assay V)).
Outline: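 Cell membranes were prepared by homogenisation in Na-HEPES/EDTA buffer, pH 7.4, and stored at −80° C. They were then coupled to SPA beads at 35 ng/μL final and exposed to compounds in assay buffer containing CaCl2, MgCl₂, OA and Tween20. After 120 min at 25° C, plates were counted and IC₅₀ derived.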

Binder	IC50
B1	0.382 nM
B2	0.176 nM
B3	0.148 nM
B4	0.939 nM
B5	0.79 nM
